Measurements: paper PMC3089636

Target: T1, Fur (ferric uptake regulator) (Salmonella enterica (strain for cloning not stated; SL1344/SV5015 used in the paper)) (UniProt A0A0H3NJ13)
T1 sequence: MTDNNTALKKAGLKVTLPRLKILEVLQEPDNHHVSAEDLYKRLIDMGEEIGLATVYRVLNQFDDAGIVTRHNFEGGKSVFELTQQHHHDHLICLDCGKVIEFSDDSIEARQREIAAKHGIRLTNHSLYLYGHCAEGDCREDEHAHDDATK
Assay: EMSA
Conditions: EMSA: 10 mM Bis-Tris/borate pH 7.5, 5% glycerol, 1 mM MgCl2, 40 mM KCl, 100 ug/ml BSA, 0.2 mg/ml salmon sperm DNA, 100 uM MnCl2, 20 nM probe, 10 min 37 C …

Substance | binding | Kd
AGTTATCTGCGGCAGGACGCTGATGACTATTACTTACAAAGGTTACATTTTCCATATTATCCCTTTGTTGATGTTATTTTAATGTTCCTTACTGGTATCCTACTGA (double strand) [FrgC] | no binding | –
AGTTATCTGCGGCAGGACGCTGATGACTATTACTTACAAAGGTTACATTTTCCATATTATCCCTTTGTTGATGTTATTTTAATGTTCCTTACTGGTATCCTACTGAAAAAATCTGAGTTGTAAATGCTCTTTATTAGCGTGTGTTGGCAATGGTCTGATTGTTACACCAAAAGAACCCAAATTTGGGTAATTTATCTACAGTAGTTTAAGCCCCAATGGGGATGATGGTTCTTTTAATATGTGTTGAGACGCATTATACA (double strand) [FrgB] | no binding | –
FrgA (PhilD) | – | 4.5 nM
